Experimental data published in US6287865.

Target: Avr2 elicitor molecule of Cladosporium fulvum (Cladosporium fulvum)

Row | Binder | resistance of progeny of resistant transformants to matched races of C. fulvum carrying or lacking Avr-2 (race 5,9 compared with race 2,5,9) [%]
1 | Cf-2.1 protein (polypeptide encoded by the tomato Cf-2.1 gene) (receptor) STEEATALLKWKATFKNQNNSFLASWIPSSNACKDWYGVVCFNGRVNTLNITNASVIGTLYAFPFSSLPSLENLDLSKNNIYGTIPPEIGNLTNLVYLDLNNNQISGTIPPQIGLLAKLQIIRIFHNQLNGFIPKEIGYLRSLTKLSLGINFLSGSIPASVGNLNNLSFLYLYNNQLSGSIPEEISYLRSLTELDLSDNALNGSIPASLGNMNNLSFLFLYGNQLSGSIPEEICYLRSLTYLDLSENALNGSIPASLGNLNNLSFLFLYGNQLSGSIPEEIGYLRSLNVLGLSENALNGSIPASLGNLKNLSRLNLVNNQLSGSIPASLGNLNNLSMLYLYNNQLSGSIPASLGNLNNLSMLYLYNNQLSGSIPASLGNLNNLSRLYLYNNQLSGSIPEEIGYLSSLTYLDLSNNSINGFIPASFGNMSNLAFLFLYENQLASSVPEEIGYLRSLNVLDLSENALNGSIPASFGNLNNLSRLNLVNNQLSGSIPEEIGYLRSLNVLDLSENALNGSIPASFGNLNNLSRLNLVNNQLSGSIPEEIGYLRSLNDLGLSENALNGSIPASLGNLNNLSMLYLYNNQLSGSIPEEIGYLSSLTYLSLGNNSLNGLIPASFANMRNLQALILNDNNLIGEIPSSVCNLTSLEVLYMPRNNLKGKVPQCLGNISNLQVLSMSSNSFSGELPSSISNLTSLQILDFGRNNLEGAIPQCFGNISSLEVFDMQNNKLSGTLPTNFSIGCSLISLNLHGNELEDEIPRSLDNCKKLQVLDLGDNQLNDTFPMWLGTLPELRVLRLTSNKLHGPIRSSRAEIMFPDLRIIDLSRNAFSQDLPTSLFEHLKGMRTVDKTMEEPSYESYYDDSVVVVTKGLELEIVRILSLYTVIDLSSNKFEGHIPSVLGDLIAIRILNVSHNALQGYIPSSLGSLSILESLDLSFNQLSGEIPQQLASLTFLEFLNLSHNYLQGCIPQGPQFRTFESNSYEGNDGLRGYPVSKGCGKDPVSEKNYTVSALEDQESNSEFFNDFWKAALMGYGSGLCIGISMIYILISTGNLRWLARIIEKLEHKIIMQRRKKQRGQRNYRRRNNHF | 75
2 | Cf-2.2 protein (polypeptide encoded by the tomato Cf-2.2 gene) (receptor) STEEATALLKWKATFKNQNNSFLASWIPSSNACKDWYGVVCFNGRVNTLNITNASVIGTLYAFPFSSLPSLENLDLSKNNIYGTIPPEIGNLTNLVYLDLNNNQISGTIPPQIGLLAKLQIIRIFHNQLNGFIPKEIGYLRSLTKLSLGINFLSGSIPASVGNLNNLSFLYLYNNQLSGSIPEEISYLRSLTELDLSDNALNGSIPASLGNMNNLSFLFLYGNQLSGSIPEEICYLRSLTYLDLSENALNGSIPASLGNLNNLSFLFLYGNQLSGSIPEEIGYLRSLNVLGLSENALNGSIPASLGNLKNLSRLNLVNNQLSGSIPASLGNLNNLSMLYLYNNQLSGSIPASLGNLNNLSMLYLYNNQLSGSIPASLGNLNNLSRLYLYNNQLSGSIPEEIGYLSSLTYLDLSNNSINGFIPASFGNMSNLAFLFLYENQLASSVPEEIGYLRSLNVLDLSENALNGSIPASFGNLNNLSRLNLVNNQLSGSIPEEIGYLRSLNVLDLSENALNGSIPASFGNLNNLSRLNLVNNQLSGSIPEEIGYLRSLNDLGLSENALNGSIPASLGNLNNLSMLYLYNNQLSGSIPEEIGYLSSLTYLSLGNNSLNGLIPASFGNMRNLQALILNDNNLIGEIPSSVCNLTSLEVLYMPRNNLKGKVPQCLGNISNLQVLSMSSNSFSGELPSSISNLTSLQILDFGRNNLEGAIPQCFGNISSLEVFDMQNNKLSGTLPTNFSIGCSLISLNLHGNELEDEIPRSLDNCKKLQVLDLGDNQLNDTFPMWLGTLPELRVLRLTSNKLHGPIRSSRAEIMFPDLRIIDLSRNAFSQDLPTSLFEHLKGMRTVDKTMEEPSYESYYDDSVVVVTKGLELEIVRILSLYTVIDLSSNKFEGHIPSVLGDLIAIRILNVSHNALQGYIPSSLGSLSILESLDLSFNQLSGEIPQQLASLTFLEFLNLSHNYLQGCIPQGPQFRTFESNSYEGNDGLRGYPVSKGCGKDPVSEKNYTVSALEDQESNSEFFNDFWKAALMGYGSGLCIGISIIYILISTGNLRWLARIIEELEHKIIMQRRKKQRGQRNYRRRNNRF | 75
